US20250216395A1 (ATYR PHARMA, published 2025)

T1: NRP1v2 (22-602) (human, UniProt O14786 22-602)
T1 construct: Recombinant protein; also called human NRP1
T1 sequence: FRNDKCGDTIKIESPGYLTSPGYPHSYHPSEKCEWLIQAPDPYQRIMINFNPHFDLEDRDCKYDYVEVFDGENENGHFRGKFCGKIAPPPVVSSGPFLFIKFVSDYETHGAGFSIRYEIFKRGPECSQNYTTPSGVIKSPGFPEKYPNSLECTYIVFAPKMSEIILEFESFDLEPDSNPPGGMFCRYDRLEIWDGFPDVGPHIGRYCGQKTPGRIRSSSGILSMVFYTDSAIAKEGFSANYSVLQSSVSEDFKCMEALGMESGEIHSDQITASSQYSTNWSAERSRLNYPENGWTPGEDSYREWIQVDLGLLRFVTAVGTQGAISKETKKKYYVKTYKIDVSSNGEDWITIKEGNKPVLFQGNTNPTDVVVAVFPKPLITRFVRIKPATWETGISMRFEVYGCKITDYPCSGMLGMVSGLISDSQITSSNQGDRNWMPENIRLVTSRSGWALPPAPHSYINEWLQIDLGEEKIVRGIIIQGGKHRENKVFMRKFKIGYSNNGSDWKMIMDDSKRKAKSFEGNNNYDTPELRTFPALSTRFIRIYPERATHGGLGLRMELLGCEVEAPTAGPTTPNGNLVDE

B1: aNRP2-36v2 (antibody, V domains shown)
VH: ELQLQQSGPELVKPGASVKISCKASGYSFTDYNMNWVKQSNGKSLEWIGVINPKSGTTVYNQKFKGKATLTVDQSSSTAYMQLNSLTSEDSAVYYCARADSSGGCWGQGTTLTVSS
VL: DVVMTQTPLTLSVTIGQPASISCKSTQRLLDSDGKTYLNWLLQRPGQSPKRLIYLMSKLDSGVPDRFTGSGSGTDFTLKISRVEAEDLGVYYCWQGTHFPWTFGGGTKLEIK
notes: Three purification lots were tested; also called antibody aNRP2-36v2; anti-NRP2 antibody
B2: blocking peptide NRP2 (642-659) (peptide)
peptide: SGFNCNFDFLEEPCGWMY
notes: Peptide corresponding to residues 642-659 of NRP2

Columns and labels:
NRP1v2 (22-602) = molecular target: T1, NRP1v2 (22-602); experiment: Western blot, denatured recombinant protein with or without 50 mM DTT
Experimental: To characterize the binding specificity of antibody aNRP2-36v2 to different denatured isoforms of NRP2 its binding specificity was tested via western blot. In addition to assessing the relative binding to NRP2a and NRP2b, cross-reactivity to mouse and rat NRP2 were also evaluated, as well as non-specific binding to NRP1. The proteins tested via Western were NRP2v2 (23-855) (SEQ ID NO: 14), NRP2v5 (23-832) (SEQ ID NO: 27), mouse NRP2v2 (23-855) (SEQ ID NO: 21), rat NRP2×2 (23-854) (SEQ ID NO: 22), and NRP1v2 (22-602) (SEQ ID NO: 24).
25 ng of each recombinant protein was denatured for 10 minutes at 70° C. with 1×LDS (ThermoFisher, NP0007) with or without 50 mM DTT and separated on a 4-12% Bis-Tris Protein Gel (ThermoFisher, NP0335) in 1×MOPS buffer (ThermoFisher, NP000102). The gel was then transferred to a nitrocellulose membrane (Fisher, cat. #IB23001) using an iBlot2 (Fisher, cat. #IB21001) for 7 min at 20V. The membrane was blocked for 1 hour using a 5% milk 0.05% TBST solution, followed by 1.0 ug/mL of the three lots of aNRP2-36v2 antibody diluted in 5% milk 0.05% TBST. Antibody was incubated on the blots overnight at 4° C. with rocking. After overnight incubation 3 washes with 0.05% TBST for 5 minutes each were performed and goat-a-mouse HRP secondary (Jackson Immuno Research, 115-035-071) diluted at 1:5,000 in the 5% milk mixture was applied to the blots for 1 hour. […]

aNRP2-36v2 = molecular target: B1; experiment: Western blot competition: 1 ug/mL aNRP2-36v2 with 5 ug/mL blocking peptide; the blocked detection is that of NRP2v2 (23-855) and of NRP2a isoform 2 in lysate
Experimental: The specificity of aNRP2-36v2 in Western blotting was also confirmed by the ability of the blocking peptide NRP2 (642-659) (SEQ ID NO: 25) to block binding. For these studies, 100 ng of NRP2v2 (23-855) (SEQ ID NO: 14) recombinant protein and 20 ug of total protein from cell lysates of Expi293 cells transiently expressing NRP2a isoform 2 (SEQ ID NO: 10) were denatured for 10 minutes at 70° C. with 1×LDS (ThermoFisher, NP0007) and separated on a 4-12% Bis-Tris Protein Gel (ThermoFisher, NP0335) in 1×MOPS buffer (ThermoFisher, NP000102). The gel was then transferred to a nitrocellulose membrane (Fisher, cat. #IB23001) using an iBlot2 (Fisher, cat. #IB21001) for 7 min at 20V. The membrane was blocked for 1 hour using a 5% milk 0.05% TBST solution, followed by 1 ug/mL of aNRP2-36v2 antibody with or without 5 ug/mL blocking peptide, diluted in 5% milk 0.05% TBST. A peptide corresponding to NRP2v2 (809-820) (SEQ ID NO: 26) was also used as a control. Antibody was incubated on the blots overnight at 4° C. with rocking. After overnight incubation 3 washes with 0.05% TBST for 5 minutes each were performed and goat-a-mouse HRP secondary (Jackson Immuno Research, 115-035-071) diluted at 1:5,000 in the 5% milk mixture was applied to the blots for 1 hour. This was followed by 3 more washes with 0.05% TBST for 5 minutes each. […]

Sequence of aNRP2-36v2 (VL, as listed by the source): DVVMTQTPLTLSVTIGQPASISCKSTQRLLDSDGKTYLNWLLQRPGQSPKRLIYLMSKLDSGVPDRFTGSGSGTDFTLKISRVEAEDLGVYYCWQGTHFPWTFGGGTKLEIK

Does B1 bind (NRP1v2 (22-602))?
Result: no binding

Does B2 bind (aNRP2-36v2)?
Result: binds
